The target of experiment [1] is T1, SARS-CoV-2 WT RBD protein (SARS-CoV-2 (WT), UniProt P0DTC2). Briefly: ELISA.
Experiment [2] deals with SARS-CoV RBD protein (Severe acute respiratory syndrome …, UniProt P59594). Nature of the experiment: cell-based or functional assay.
The target in experiment [3] is T1, SARS-CoV-2 WT RBD protein. Briefly: SPR. (Surface plasmon resonance follows binding to a sensor surface in real time, without labels.)

The results in this text go back to paper PMC9116965 (iScience, 2022).

B1: EY6A (antibody, V domains shown)
VH: EVQLVESGGGVVQPGRSLRLSCAASAFTFSSYDMHWVRQAPGKGLEWVAVISYDGSNKYYADSVKGRFTISRDNSKNTLYLQMNSLRAEDTAVYYCAKDGGKLWVYYFDYWGQGTLVTVSS
VL: not shown
Regarding B1, the binding result in experiment [1] is on record as “binds”.

B2: S2A4 (antibody, V domains shown)
VH: EVQLVESGGGLVQPGGSLRLSCAASGFTFSSYWMNWVRQAPGKGLEWVANIKQDGSEKYYVDSVKGRFTISRDNAKNSLFLQMNSLRAEDTAVYYCARVWWLRGSFDYWGQGTLVTVSS
VL: NFMLTQPHSVSESPGKTVTISCTGSSGSIASNYVQWYQQRPGSAPTTVIYEDNQRPSGVPDRFSGSIDSSSNSASLTISGLKTEDEADYYCQSYDSSNHVVFGGGTKLTVL
As to B2, the binding result in experiment [1] is “binds”.

B3: STS165 (full-length IgG form) (antibody, V domains shown)
VH: EVQLVESGGGVVRPGGSLRLSCAASGFTFDDYGMSWVRQAPGKGLEWVSGINWNGGSTGYADSVKGRFTISRDNAKNSLYLQMNSLRAEDTALYHCARVGYCGGDCYSLSLAGFPDYWGQGTLVTVSS
VL: not shown
Take B3: in experiment [2], the “pseudovirus neutralisation of SARS-CoV, IC50 (HEK-293T-hACE2 cells, luciferase)” value stood at 2.09 µg/mL.

B4: STS165 Fab form (Fab, V domains shown)
VH: EVQLVESGGGVVRPGGSLRLSCAASGFTFDDYGMSWVRQAPGKGLEWVSGINWNGGSTGYADSVKGRFTISRDNAKNSLYLQMNSLRAEDTALYHCARVGYCGGDCYSLSLAGFPDYWGQGTLVTVSS
VL: not shown
Consider B4, for which, in experiment [3], the “fold decrease of binding affinity against the IgG form” value is more than 50 fold.

B5: H014 (antibody, V domains shown)
VH: EVQLVQSGAEVKKPGATVKISCKVSGYSFSNYYIHWVKQAPGKSLEWIGYIDPFNGGTSDNLKFKGAATLTADTSTDTAYMELSSLRSEDTAVYYCARSEYDPYYVMDYWGQGTTVTVSS
VL: IVLTQSPFQSVSPKEKVTITCRASQSISSNLHWYQQKPDQSPKLLIKYASQSISGIPSRFSGSGSGTDFTLTINSLEAEDFGIYFCQQTNFWPYIFGQGTKLEIL
For B5, the binding result in experiment [1] is “binds”.
